Consider two substances from publication PMC2120799.

Bounds are passed on as bounds.

The target in the assay is cdk2 (NIH-3T3 cells) (mouse (endogenous in NIH-3T3)) (UniProt P97377). In words: co-IP.

Regarding “p21 (NIH-3T3 cells) (from UniProt P39689 1-159) (natural protein)”, the stoichiometry N (mol per mol cdk2) is below 1.
“p27 (NIH-3T3 cells) (from UniProt P46414 1-197) (natural protein)” returned a stoichiometry N (mol per mol cdk2) below 1.
